The substances below were run against ACE2-Fc fusion protein (extracellular domain of human ACE2 and the Fc region of human IgG1) (human) (UniProt Q9BYF1) (assay: ELISA).
“recombinant S1-subunit or RBD of SARS-CoV-2 variant B.1.1.7 (domain or fragment)” was tested, and the EC50 was 0.8 nM. For “recombinant S1-subunit or RBD of SARS-CoV-2 variant B.1.351 (domain or fragment)”, the EC50 was 6.9 nM. “recombinant S1-subunit or RBD of SARS-CoV-2 variant B.1.617.1 (domain or fragment)” was tested, and the EC50 was 51.3 nM. Substance “recombinant S1-subunit or RBD of SARS-CoV-2 variant P.1 (domain or fragment)” has an EC50 of 14.9 nM. With “recombinant S1-subunit or RBD of SARS-CoV-2-D614G (domain or fragment)” the EC50 was 2.6 nM.
